Patent CN115433279A (SUZHOU DIMA BIOTECHNOLOGY CO LTD, dated 2022)

B1: 命名为1E4的兔重组单克隆抗体 (antibody, V domains shown)
VH: QSLEESGGRLVTPGTPLTLTCTASGFSLSSYYMSWVRQAPGKGLEYIGIIYDSGSTWYANWAKGRFTISKTSTAVYLEITSPTTEDTATYFCARTGSIYYIWLDLWGQGTLVTVSS
VL: AAVLTQTPSPVSAAVGGSVTISCQSSQTIYKNNDLAWYQQKPGQPPKLLIYEASKLASGVPSRFSGSGSGTQFTLTISGVQCDDAATYYCLGGYDDDDDNTFGGGTEVVVK
notes: In the later assays it was recombinant antibody purified from 293 cells
B2: 命名为1E6的兔重组单克隆抗体 (antibody, V domains shown)
VH: QSVEESGGRLVTPGTPLTLACTVSGFDISSYSMSWVRQAPGKGLEWIGSGIIGGSTYYASWAKGRFTISKTSTTVDLKITSPTTEDTATYFCARFAGTSSTDYYDLWGQGTLVTVSS
VL: TQTPSSVEAAVGGTVTIKCQASQSIDSYLAWYQQKPGQPPKLLIYDTSTLASGVSSRFKGSGSGTQFTLTISDLECADAATYYCQNYWIITTFGFGGGTEVVVK
B3: 命名为1E5的兔重组单克隆抗体 (antibody, V domains shown)
VH: QSVKESAGGLFKPTDTLTLTCTASGFTISSNAITWVRQAPGNGLEWIGGIDSSGSAYYASWAKSRSTITRNTNLNTVTLKMTSLTAADTATYFCAGGSNIWGPGTLVTVSS
VL: DIVMTQTPSSVSAAVGGTVTIKCQASESIYSYLSWYQQKPGQPPKLLIYLASTLDSGVPSRFKGSGSGTQFTLTISDLECADAATYYCQSSYFSSGSSYGNTFGGGTEVVVK
B4: 命名为5D3的兔重组单克隆抗体 (antibody, V domains shown)
VH: GGAEGGLVKPGGSLELCCKASGFSLSNLRVNWVRQAPGKGLEWIGCIISDSSGTTSYASWVNGRFTLSRDIDQNTGCLQLNSLTVADTAMYYCASRVNITSYDLSLWGQGTLVTVSS
VL: AAVLTQTPSPVSAAVGGTVSISCQSSKSVYNNKWLSWFQQKPGQPPKLLIYSASTLASGVPSRFSGSGSGTDFTLTISDVQCDDAATYYCAGGYSGSSDTYSFGGGTEVVVK

What was measured:
[1] = target: CD123 FC融合标签蛋白 (UniProt P26951); test: indirect ELISA, CD123 protein coated at 1 μg/ml, B cell clone supernatant
[2] = target: T1, CD123全长蛋白 (细胞膜上CD123) (UniProt P26951 19-378, limits assumed); test: flow cytometry on Raji cells, antibody titration
T1 construct: whole, on cells; also called 天然细胞表面CD123蛋白
T1 sequence (P26951 19-378 limits assumed): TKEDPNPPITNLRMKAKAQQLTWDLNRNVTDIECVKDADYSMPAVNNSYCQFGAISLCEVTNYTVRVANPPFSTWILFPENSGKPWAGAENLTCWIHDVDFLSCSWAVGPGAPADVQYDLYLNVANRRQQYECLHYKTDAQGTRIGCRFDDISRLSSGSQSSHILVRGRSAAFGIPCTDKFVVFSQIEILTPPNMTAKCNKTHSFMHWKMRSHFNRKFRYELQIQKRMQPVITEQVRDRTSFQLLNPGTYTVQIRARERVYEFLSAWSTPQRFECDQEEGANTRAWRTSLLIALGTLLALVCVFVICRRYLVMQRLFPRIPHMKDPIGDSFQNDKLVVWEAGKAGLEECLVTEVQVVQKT

| Binder | OD450 [1] [OD450] | binding result [2] |
| --- | --- | --- |
| B1 | 2.1 | binds |
| B2 | 1.53 |  |
| B3 | 1.87 | binds |
| B4 | 1.77 |  |
